Results as given in US20050277575A1 (published 2005).

Biological target: T1, S100A4 protein (recombinant human, GST tag removed) (human)
T1 chain: YVERW
Experiment: cell-based or functional assay

B1: peptide SEQ ID NO 6, Ac-AGLREVYGASLASYMERW-amide (peptide)
peptide: Ac-AGLREVYGASLASYMERW-NH2
- IC50 for inhibition of the accelerating effect of S100A4 on t-PA-dependent conversion of plasminogen to plasmin: 6 µM
